Consider 1 molecule from patent US20120045395, “MicroRNAs In Idiopathic Pulmonary Fibrosis” (UNIVERSITY OF PITTSBURGH - OF THE COMMONWEALTH SYSTEM OF …, published 2012).

This data set has as its target SMAD3 (UniProt P84022 P84022:1-425). Kind of data set: EMSA; 5 mM MgCl2, 200 mM NaCl, pH 7.6, poly(dI-dC), room temperature; band diminished by unlabeled competitor; probe described as upstream of the predicted site …. Particulars: tags: full length, Santa Cruz Biotechnology; label: 5'-Cy5. On the procedure: Electrophoretic Mobility Shift Assay (EMSA): Cultured A549 cells at 60-70% confluence were treated with 2 ng/mL recombinant human TGFβ₁ (R&D Systems) for 60 minutes. Nuclear proteins were isolated using a standard rapid micropreparation technique described at Andrews N. C. and Faller D. V. Nucleic acids research (1991); 19:2499). The supernatant was reserved and snap frozen in liquid nitrogen as the nuclear protein fraction. Nuclear extracts and recombinant full length SMAD3 protein (Santa Cruz Biotechnology, Santa Cruz, Calif.) were incubated with 5′-end Cyanine-5 labeled probe and/or non-labeled competitor oligonucleotide for 20 minutes at room temperature in a binding buffer consisting of 20% glycerol, 5 mM MgCl₂, 2.5 mM EDTA, 25 mM DTT, 200 mM NaCl, 50 mM Tris HCl pH 7.6, and 0.25 mg/mL poly(dI-dC). The complementary oligonucleotides (5′-[…]-3′ (SEQ ID NO: 3), 5′-[…]-3′ (SEQ ID NO: 4)) were synthesized by Integrated DNA Technologies (Coralville, Iowa), and consisted of a sequence upstream of the predicted SMAD3/let7d binding site (GGCTGAGTA (SEQ ID NO:5)). […] The protein/DNA complexes were run on a 6% native polyacrylamide gel and visualized on a Typhoon imaging and documentation system using Cyanine-5 dye excitation and fluorescence settings.

Chain of SMAD3 (P84022 whole entry, one chain of several): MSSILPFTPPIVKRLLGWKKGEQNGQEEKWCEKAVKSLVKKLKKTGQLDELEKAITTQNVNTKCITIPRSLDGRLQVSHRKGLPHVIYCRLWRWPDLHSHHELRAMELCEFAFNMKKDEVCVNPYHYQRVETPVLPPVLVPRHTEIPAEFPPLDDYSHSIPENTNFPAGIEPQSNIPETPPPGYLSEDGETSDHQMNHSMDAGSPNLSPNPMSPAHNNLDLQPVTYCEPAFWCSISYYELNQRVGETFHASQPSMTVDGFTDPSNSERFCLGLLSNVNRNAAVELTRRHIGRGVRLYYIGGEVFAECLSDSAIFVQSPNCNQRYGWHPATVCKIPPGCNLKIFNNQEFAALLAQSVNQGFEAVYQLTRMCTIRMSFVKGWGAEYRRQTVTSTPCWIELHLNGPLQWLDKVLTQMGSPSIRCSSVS

B1: let-7d promoter EMSA probe (dsDNA)
DNA 1: GATAATTAAATGTTAAAAGTCAGC
DNA 2: GCTGACTTTTAACATTTAATTATC
Turning to B1, the binding result is “binds”.
